According to paper PMC10786891, “Massively parallel profiling of RNA-targeting CRISPR-Cas13d”:
Numbering of substitutions follows the chain as printed. Names and notes keep the numbering of the source.

B1: target 1 insC 3' of 16,insU 3' of 7 (mixed)
RNA 1: CACCCGUGCAAAAAUGCAGGGGUCUAAAACUGAGCGGAUAACCUCUCUAUGG
RNA 2: GGGAAUGGAUCCACAUCUACGAAUUCGUACCAUAGACGAGGUUAUCUCGCUCACCGAGAUCGGAAGAGCACACGU
B2: target 2 MT 5'PFS ACU 3'PFS CCG (mixed)
RNA 1: CACCCGUGCAAAAUUGCAGGGGUCUAAAACCUUCUCCAAAUUGUUUCAUCCU
RNA 2: GGGAAUGGAUCCACAUCUACGAAUUCACUAGGAUGAAACAAUUUGGAGAAGCCGAGAUCGGAAGAGCACACGU
B3: target 2 MT 5'PFS ACC 3'PFS UUU (mixed)
RNA 1: B2 RNA 1
RNA 2: B2 RNA 2 with U29C, C52U, C53U, G54U
B4: target 2 MT 5'PFS CGG 3'PFS UCG (mixed)
RNA 1: B2 RNA 1
RNA 2: B2 RNA 2 with A27C, C28G, U29G, C52U
B5: target 2 MT 5'PFS CGA 3'PFS AGA (mixed)
RNA 1: B2 RNA 1
RNA 2: B2 RNA 2 with A27C, C28G, U29A, C52A, C53G, G54A
B6: target 2 MT 5'PFS CGA 3'PFS AGC (mixed)
RNA 1: B2 RNA 1
RNA 2: B2 RNA 2 with A27C, C28G, U29A, C52A, C53G, G54C
B7: target 2 MT 5'PFS ACC 3'PFS UUG (mixed)
RNA 1: B2 RNA 1
RNA 2: B2 RNA 2 with U29C, C52U, C53U
B8: target 2 MT 5'PFS ACC 3'PFS UUA (mixed)
RNA 1: B2 RNA 1
RNA 2: B2 RNA 2 with U29C, C52U, C53U, G54A
B9: target 2 MT 5'PFS ACC 3'PFS UUC (mixed)
RNA 1: B2 RNA 1
RNA 2: B2 RNA 2 with U29C, C52U, C53U, G54C
B10: target 2 MT 5'PFS UAA 3'PFS UUC (mixed)
RNA 1: B2 RNA 1
RNA 2: B2 RNA 2 with A27U, C28A, U29A, C52U, C53U, G54C
B11: target 2 MT 5'PFS CUG 3'PFS CAC (mixed)
RNA 1: B2 RNA 1
RNA 2: B2 RNA 2 with A27C, C28U, U29G, C53A, G54C
B12: target 1 insC 3' of 11,insU 3' of 7 (mixed)
RNA 1: B1 RNA 1
RNA 2: B1 RNA 2 with C37G, G38A, A39G, G41U, U42C
B13: target 2 MT 5'PFS CUG 3'PFS CAG (mixed)
RNA 1: B2 RNA 1
RNA 2: B2 RNA 2 with A27C, C28U, U29G, C53A
B14: target 2 MT 5'PFS CUG 3'PFS CAU (mixed)
RNA 1: B2 RNA 1
RNA 2: B2 RNA 2 with A27C, C28U, U29G, C53A, G54U
B15: target 2 MT 5'PFS UAA 3'PFS UUU (mixed)
RNA 1: B2 RNA 1
RNA 2: B2 RNA 2 with A27U, C28A, U29A, C52U, C53U, G54U
B16: target 2 MT 5'PFS AGA 3'PFS CGC (mixed)
RNA 1: B2 RNA 1
RNA 2: B2 RNA 2 with C28G, U29A, C53G, G54C
B17: target 2 MT 5'PFS GCC 3'PFS CCG (mixed)
RNA 1: B2 RNA 1
RNA 2: B2 RNA 2 with A27G, U29C
B18: target 2 MT 5'PFS GCC 3'PFS CCA (mixed)
RNA 1: B2 RNA 1
RNA 2: B2 RNA 2 with A27G, U29C, G54A
B19: target 2 MT 5'PFS CAG 3'PFS AAC (mixed)
RNA 1: B2 RNA 1
RNA 2: B2 RNA 2 with A27C, C28A, U29G, C52A, C53A, G54C
B20: target 2 MT 5'PFS AAC 3'PFS AGA (mixed)
RNA 1: B2 RNA 1
RNA 2: B2 RNA 2 with C28A, U29C, C52A, C53G, G54A
B21: target 2 MT 5'PFS UCG 3'PFS ACU (mixed)
RNA 1: B2 RNA 1
RNA 2: B2 RNA 2 with A27U, U29G, C52A, G54U
B22: target 2 MT 5'PFS CUC 3'PFS CUU (mixed)
RNA 1: B2 RNA 1
RNA 2: B2 RNA 2 with A27C, C28U, U29C, C53U, G54U
B23: target 1 insG 3' of 22,insG 3' of 21 (mixed)
RNA 1: B1 RNA 1
RNA 2: GGGAAUGGAUCCACAUCUACGAAUUCGUACGCGAUAGAGAGGUUAUCCGCUCACCGAGAUCGGAAGAGCACACGU
B24: target 2 MT 5'PFS GCA 3'PFS AAU (mixed)
RNA 1: B2 RNA 1
RNA 2: B2 RNA 2 with A27G, U29A, C52A, C53A, G54U
B25: target 2 MT 5'PFS CUC 3'PFS CUC (mixed)
RNA 1: B2 RNA 1
RNA 2: B2 RNA 2 with A27C, C28U, U29C, C53U, G54C
B26: target 2 MT 5'PFS GUG 3'PFS UGU (mixed)
RNA 1: B2 RNA 1
RNA 2: B2 RNA 2 with A27G, C28U, U29G, C52U, C53G, G54U
B27: target 2 MT 5'PFS CUC 3'PFS CUA (mixed)
RNA 1: B2 RNA 1
RNA 2: B2 RNA 2 with A27C, C28U, U29C, C53U, G54A
B28: target 2 MT 5'PFS CUC 3'PFS CUG (mixed)
RNA 1: B2 RNA 1
RNA 2: B2 RNA 2 with A27C, C28U, U29C, C53U
B29: target 2 MT 5'PFS UCG 3'PFS ACG (mixed)
RNA 1: B2 RNA 1
RNA 2: B2 RNA 2 with A27U, U29G, C52A
B30: target 2 MT 5'PFS GCA 3'PFS AAG (mixed)
RNA 1: B2 RNA 1
RNA 2: B2 RNA 2 with A27G, U29A, C52A, C53A
B31: target 2 MT 5'PFS GCA 3'PFS AAC (mixed)
RNA 1: B2 RNA 1
RNA 2: B2 RNA 2 with A27G, U29A, C52A, C53A, G54C
B32: target 2 MT 5'PFS GCA 3'PFS AAA (mixed)
RNA 1: B2 RNA 1
RNA 2: B2 RNA 2 with A27G, U29A, C52A, C53A, G54A
B33: target 2 MT 5'PFS GCG 3'PFS AGC (mixed)
RNA 1: B2 RNA 1
RNA 2: B2 RNA 2 with A27G, U29G, C52A, C53G, G54C
B34: target 1 A9U,G13U (mixed)
RNA 1: B1 RNA 1
RNA 2: GGGAAUGGAUCCACAUCUACGAAUUCGUACCAUAGAGAUGUUUUCCGCUCACCGAGAUCGGAAGAGCACACGU
B35: target 2 MT 5'PFS ACG 3'PFS CAU (mixed)
RNA 1: B2 RNA 1
RNA 2: B2 RNA 2 with U29G, C53A, G54U
B36: target 2 MT 5'PFS GCG 3'PFS AGA (mixed)
RNA 1: B2 RNA 1
RNA 2: B2 RNA 2 with A27G, U29G, C52A, C53G, G54A
B37: target 2 MT 5'PFS GCG 3'PFS AGG (mixed)
RNA 1: B2 RNA 1
RNA 2: B2 RNA 2 with A27G, U29G, C52A, C53G
B38: target 2 MT 5'PFS CUG 3'PFS ACU (mixed)
RNA 1: B2 RNA 1
RNA 2: B2 RNA 2 with A27C, C28U, U29G, C52A, G54U

Biological target: T1, EsCas13d, nuclease-dead (Eubacterium siraeum, UniProt B0MS50, R295A;H300A;R849A;H854A)
T1 sequence: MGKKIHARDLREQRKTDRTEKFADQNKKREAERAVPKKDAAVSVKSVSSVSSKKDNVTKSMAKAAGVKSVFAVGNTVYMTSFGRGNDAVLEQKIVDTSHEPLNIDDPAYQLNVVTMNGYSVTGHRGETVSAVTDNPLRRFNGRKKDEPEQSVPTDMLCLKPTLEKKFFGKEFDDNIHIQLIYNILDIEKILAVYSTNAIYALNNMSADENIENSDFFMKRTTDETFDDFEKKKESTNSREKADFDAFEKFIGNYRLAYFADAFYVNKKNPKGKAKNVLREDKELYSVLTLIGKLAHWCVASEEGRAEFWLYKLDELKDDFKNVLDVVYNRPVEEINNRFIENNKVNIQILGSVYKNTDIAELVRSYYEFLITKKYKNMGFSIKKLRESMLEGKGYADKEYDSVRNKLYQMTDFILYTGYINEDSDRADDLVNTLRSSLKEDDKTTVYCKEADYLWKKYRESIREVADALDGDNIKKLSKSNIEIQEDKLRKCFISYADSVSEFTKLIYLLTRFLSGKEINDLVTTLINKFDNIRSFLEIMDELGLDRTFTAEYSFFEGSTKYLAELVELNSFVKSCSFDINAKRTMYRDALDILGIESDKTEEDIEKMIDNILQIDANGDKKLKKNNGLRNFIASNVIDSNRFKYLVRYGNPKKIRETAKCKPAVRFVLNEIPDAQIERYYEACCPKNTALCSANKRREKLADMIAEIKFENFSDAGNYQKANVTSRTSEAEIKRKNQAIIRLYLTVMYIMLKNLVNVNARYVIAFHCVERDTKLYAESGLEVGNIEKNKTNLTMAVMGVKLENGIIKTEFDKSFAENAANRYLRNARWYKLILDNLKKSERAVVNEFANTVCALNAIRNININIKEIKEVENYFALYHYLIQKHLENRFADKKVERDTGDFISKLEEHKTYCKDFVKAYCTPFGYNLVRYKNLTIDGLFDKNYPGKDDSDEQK
Assay: crRNA (strand 1, pre-loaded); Mg2+; 40 mM Tris-HCl pH 7.5, 150 mM NaCl, 6 mM MgCl2, 1 mM DTT, 0.1% Tween-20, 0.2 mg/ml BSA; 25 C; 10 min per concentration, then washed
Conditions: tags: His6-TwinStrep-SUMO cleaved; N-terminal SNAP kept (SNAP-Surface 488); label: 3' end held by stalled T7 RNA polymerase

Compared with B1, B2 is 12-fold lower in Kd: 75 ± 8 nM for the first, 6.2 ± 0.6 nM for the second.

B3 and B4 are within error of each other in Kd: 7.8 ± 0.9 nM for the first, 7 ± 0.6 nM for the second.

Going from B5 to B6, the Kd rises from 4.6 ± 0.9 nM to 7.8 ± 1.1 nM (1.7-fold).

B7 and B8 are within error of each other in Kd: 11.2 ± 2.2 nM for the first, 9.6 ± 2.8 nM for the second.

Compared with B9, B10 is 1.7-fold higher in Kd: 8.2 ± 1.4 nM for the first, 14 ± 2.1 nM for the second.

Going from B11 to B12, the Kd rises from 3.7 ± 0.4 nM to 39 ± 5 nM (11-fold).

B13 and B14 are within error of each other in Kd: 2.33 ± 0.21 nM for the first, 2.29 ± 0.24 nM for the second.

Going from B15 to B16, the Kd falls from 13.4 ± 1.9 nM to 6.5 ± 1.2 nM (2.1-fold). The second binds more tightly here.

B17 and B18 are within error of each other in Kd: 18 ± 2 nM for the first, 20 ± 4 nM for the second.

Compared with B19, B20 is 1.8-fold lower in Kd: 6.1 ± 1.4 nM for the first, 3.3 ± 0.8 nM for the second.

Going from B21 to B22, the Kd falls from 20 ± 4 nM to 2.47 ± 0.18 nM (8.1-fold). The second binds more tightly here.

First: B23
Second: B24
The Kd of the first is 6.8-fold higher: 68 ± 24 nM for the first, 10 ± 1.9 nM for the second.

Going from B25 to B26, the Kd rises from 3.1 ± 0.6 nM to 27 ± 2.4 nM (8.7-fold).

First: B27
Second: B28
The Kd of the first is 2.2-fold lower: 2.02 ± 0.29 nM for the first, 4.4 ± 1.5 nM for the second.

Going from B29 to B30, the Kd falls from 45 ± 9 nM to 7.8 ± 1.2 nM (5.8-fold). The second binds more tightly here.

First: B31
Second: B32
The Kd of the first is 1.8-fold higher: 11.9 ± 3.3 nM for the first, 6.5 ± 2 nM for the second. The second binds more tightly here.

Compared with B33, B34 is 5.5-fold higher in Kd: 9.7 ± 1.6 nM for the first, 53 ± 8 nM for the second.

B35 and B36 are within 1.5-fold of each other in Kd: 5.5 ± 0.6 nM for the first, 7.6 ± 1 nM for the second.

Going from B37 to B38, the Kd falls from 16.2 ± 2.8 nM to 4.5 ± 0.8 nM (3.6-fold).
